# Results reported in US6506592 (BOARD OF REGENTS OF THE UNIVERSITY OF NEBRASKA, dated 2003).
# B1: Sulfolobus solfataricus alpha-glucosidase (malA protein), recombinant (enzyme)
# chain: MQTIKIYENKGVYKVVIGEPFPPIEFPLEQKISSNKSLSELGLTIVQQGNKVIVEKSLDLKEHIIGLGEKAFELDRKRKRYVMYNVDAGAYKKYQDPLYVSIPLFISVKDGVATGYFFNSASKVIFDVGLEEYDKVIVTIPEDSVEFYVIEGPRIEDVLEKYTELTGKPFLPPMWAFGYMISRYSYYPQDKVVELVDIMQKEGFRVAGVFLDIHYMDSYKLFTWHPYRFPEPKKLIDELHKRNVKLITIVDHGIRVDQNYSPFLSGMGKFCEIESGELFVGKMWPGTTVYPDFFREDTREWWAGLISEWLSQGVDGIWLDMNEPTDFSRAIEIRDVLSSLPVQFRDDRLVTTFPDNVVHYLRGKRVKHEKVRNAYPLYEAMATFKGFRTSHRNEIFILSRAGYAGIQRYAFIWTGDNTPSWDDLKLQLQLVLGLSISGVPFVGCDIGGFQGRNFAEIDNSMDLLVKYYALALFFPFYRSHKATDGIDTEPVFLPDYYKEKVKEIVELRYKFLPYIYSLALEASEKGHPVIRPLFYEFQDDDDMYRIEDEYMVGKYLLYAPIVSKEESRLVTLPRGKWYNYWNGEIINGKSVVKSTHELPIYLREGSIIPLEGDELIVYGETSFKRYDNAEITSSSNEIKFSREIYVSKLTITSEKPVSKIIVDDSKEIQVEKTMQNTYVAKINQKIRGKINLE
# notes: 693 amino acids, 80.5 kDa subunit; Assayed as produced in transgenic tobacco (T2 plant MI52E extract) and as an E. coli-derived positive control; both come from the same malA coding region; also called malA polypeptide; recombinant alpha-glucosidase
# Molecular target: T1, Staphylococcus protein A (Staphylococcus, UniProt P38507 37-477)
# T1 construct: Used to remove antibody-antigen complexes in the immunoprecipitation
# Assay: immunoprecipitation from T2 plant MI52E extract; residual alpha-glucosidase activity in the supernatant
# Description: Tobacco leaf extracts to be used for detection of glycosyl hydrolase antigens were concentrated 3-fold by (NH_4)_2 SO_4 precipitation. […] Proteins (Amersham) were transferred to nitrocellulose and incubated. […] Concentrated plant protein extracts were diluted 1:10 in 10 mM tris-Cl pH 7.0. 50 ul of anti-malA antibodies were added to 200 ul of diluted extract and incubated for 2 hours at 4° C. with gentle agitation. […] Blots were soaked with a chemiluminescent substrate solution (Amersham) and results visualized by autoradiography and quantified by densitometry.
# The residual activity remaining in the treated samples was then determined by enzyme assay.
binder,measurement,value
B1,binding result,no binding
